Measurements reported in the RNAGym collection of RNA variant scans (doi:10.1073/pnas.2313332121).

B1: TPR t1 (parent)
chain: GACCAAUCUGCCCUCAGAGCUCGAGAACAUCUUCGGAUGCAGAGGAGGCAGGCUUCGGUGGCGCGAUAGCGCCAACGUCCUCAACCUCCAAUGCAUCCCACCACAUGAUGAUGCCUGAAGAGCCUUGGUUUUUUG

Variants of: B1
Experiment: polymerase ribozyme fitness, log enrichment relative to wild type (log ratio); higher = more active; in vitro selection for triplet polymerase activity
Method in brief: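 Mutant libraries for each subunit of a heterodimeric triplet polymerase ribozyme were made by PCR and then transcribed. Each library underwent one round of in vitro selection in triplicate: annealing with a biotinylated primer, the partner subunit and triplets, frozen incubation at −7 °C, gel excision of extended constructs, streptavidin-bead capture and RT-PCR. Input and output libraries were Illumina-sequenced, and only genotypes with ≥10 input reads and ≥1 read per output were kept. Fitness is the logarithm, base 2, of genotype enrichment over wild-type enrichment, computed from inverse-variance-weighted replicate averages.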

First: GACCAAUCUGCCCUCAGAGCUCGAGAACAUCUUCGGAUGCAGAGGAGGCAGGCUUCGGUGGCGCGAUAGCGCCAACGUCCUCAACCUCCAAUGCAUCCCACCACAUGAUGAUGCCUGAAUAGCUUUGGUUUUUUG [G120U C124U]
Second: GACCAAUCUGCCCUCAGAGCUCGAGAACAUCUUCGGAUGCAGAGGAGGCAGGCUUCGGUGGCGCGAUAGCGCCAACGUCCUCAACCUCCAAUGCAUCCCACCACAUGAUGAUGCCUGAACAGCCUUCGUUUUUUG [G120C G127C]
The “polymerase ribozyme fitness (log ratio)” value of the first is higher: 1.38 for the first, -0.522 for the second.

Going from GACCAAUCUGCCCUCAGAGCUCGAGAACAUCUUCGGAUGCAGAGGAGGCAGGCUUCGGUGGCGCGAUAGCGCCAACGUCCUCAACCUCCAAUGCAUCCCACCACAUGAUGAUGCCUGAACAGCCUUAGUUUUUUG [G120C G127A] to GACCAAUCUGCCCUCAGAGCUCGAGAACAUCUUCGGAUGCAGAGGAGGCAGGCUUCGGUGGCGCGAUAGCGCCAACGUCCUCAACCUCCAAUGCAUCCCACCACAUGAUGAUGCCUGAAGAGCCGUGGUUUCUUG [U125G U132C], the “polymerase ribozyme fitness (log ratio)” value falls from 0.0309 to -0.45.

Compared with GACCAAUCUGCCCUCAGAGCUCGAGAACAUCUUCGGAUGCAGAGGAGGCAGGCUUCGGUGGCGCGAUAGCGCCAACGUCCUCAACCUCCAAUGCAUCCCACCACAUGAUGAUGCCUGAAGAGCAUUGGUUAUUUG [C124A U131A], GACCAAUCUGCCCUCAGAGCUCGAGAACAUCUUCGGAUGCAGAGGAGGCAGGCUUCGGUGGCGCGAUAGCGCCAACGUCCUCAACCUCCAAUGCAUCCCACCACAUGAUGAUGCCUGAAGCGCCUUGGUUUUAUG [A121C U133A] is lower in “polymerase ribozyme fitness (log ratio)” value: 1.79 for the first, -0.797 for the second.

First: GACCAAUCUGCCCUCAGAGCUCGAGAACAUCUUCGGAUGCAGAGGAGGCAGGCUUCGGUGGCGCGAUAGCGCCAACGUCCUCAACCUCCAAUGCAUCCCACCACAUGAUGAUGCCUGAAGAGCCUUGGCUUUUUC [U129C G135C]
Second: GACCAAUCUGCCCUCAGAGCUCGAGAACAUCUUCGGAUGCAGAGGAGGCAGGCUUCGGUGGCGCGAUAGCGCCAACGUCCUCAACCUCCAAUGCAUCCCACCACAUGAUGAUGCCUGAAGAGCUAUGGUUUUUUG [C124U U125A]
The “polymerase ribozyme fitness (log ratio)” value of the first is lower: 0.513 for the first, 0.926 for the second.

Going from GACCAAUCUGCCCUCAGAGCUCGAGAACAUCUUCGGAUGCAGAGGAGGCAGGCUUCGGUGGCGCGAUAGCGCCAACGUCCUCAACCUCCAAUGCAUCCCACCACAUGAUGAUGCCUGAAGUGGCUUGGUUUUUUG [A121U C123G] to GACCAAUCUGCCCUCAGAGCUCGAGAACAUCUUCGGAUGCAGAGGAGGCAGGCUUCGGUGGCGCGAUAGCGCCAACGUCCUCAACCUCCAAUGCAUCCCACCACAUGAUGAUGCCUGAAGCGUCUUGGUUUUUUG [A121C C123U], the “polymerase ribozyme fitness (log ratio)” value falls from 1.92 to 0.54.

Going from GACCAAUCUGCCCUCAGAGCUCGAGAACAUCUUCGGAUGCAGAGGAGGCAGGCUUCGGUGGCGCGAUAGCGCCAACGUCCUCAACCUCCAAUGCAUCCCACCACAUGAUGAUGCCUGAAGAGGCUUGGUUUUUUU [C123G G135U] to GACCAAUCUGCCCUCAGAGCUCGAGAACAUCUUCGGAUGCAGAGGAGGCAGGCUUCGGUGGCGCGAUAGCGCCAACGUCCUCAACCUCCAAUGCAUCCCACCACAUGAUGAUGCCUGAAGCGCCUAGGUUUUUUG [A121C U126A], the “polymerase ribozyme fitness (log ratio)” value falls from 1.4 to 0.358.

Going from GACCAAUCUGCCCUCAGAGCUCGAGAACAUCUUCGGAUGCAGAGGAGGCAGGCUUCGGUGGCGCGAUAGCGCCAACGUCCUCAACCUCCAAUGCAUCCCACCACAUGAUGAUGCCUGAAGAGGCUUGGUGUUUUG [C123G U130G] to GACCAAUCUGCCCUCAGAGCUCGAGAACAUCUUCGGAUGCAGAGGAGGCAGGCUUCGGUGGCGCGAUAGCGCCAACGUCCUCAACCUCCAAUGCAUCCCACCACAUGAUGAUGCCUGAACAGCUUUGGUUUUUUG [G120C C124U], the “polymerase ribozyme fitness (log ratio)” value rises from 1.48 to 1.74.

Going from GACCAAUCUGCCCUCAGAGCUCGAGAACAUCUUCGGAUGCAGAGGAGGCAGGCUUCGGUGGCGCGAUAGCGCCAACGUCCUCAACCUCCAAUGCAUCCCACCACAUGAUGAUGCCUGAACAGCCUUGGUUUUAUG [G120C U133A] to GACCAAUCUGCCCUCAGAGCUCGAGAACAUCUUCGGAUGCAGAGGAGGCAGGCUUCGGUGGCGCGAUAGCGCCAACGUCCUCAACCUCCAAUGCAUCCCACCACAUGAUGAUGCCUGAAGGGCCAUGGUUUUUUG [A121G U125A], the “polymerase ribozyme fitness (log ratio)” value rises from 1.48 to 2.32.

First: GACCAAUCUGCCCUCAGAGCUCGAGAACAUCUUCGGAUGCAGAGGAGGCAGGCUUCGGUGGCGCGAUAGCGCCAACGUCCUCAACCUCCAAUGCAUCCCACCACAUGAUGAUGCCUGAAGUGCCUUGGUUUUAUG [A121U U133A]
Second: GACCAAUCUGCCCUCAGAGCUCGAGAACAUCUUCGGAUGCAGAGGAGGCAGGCUUCGGUGGCGCGAUAGCGCCAACGUCCUCAACCUCCAAUGCAUCCCACCACAUGAUGAUGCCUGAAGAGCCUUAGUUUUUUU [G127A G135U]
The “polymerase ribozyme fitness (log ratio)” value of the first is higher: 1.83 for the first, -2.16 for the second.

First: GACCAAUCUGCCCUCAGAGCUCGAGAACAUCUUCGGAUGCAGAGGAGGCAGGCUUCGGUGGCGCGAUAGCGCCAACGUCCUCAACCUCCAAUGCAUCCCACCACAUGAUGAUGCCUGAAGAGCCUUGAUUAUUUG [G128A U131A]
Second: GACCAAUCUGCCCUCAGAGCUCGAGAACAUCUUCGGAUGCAGAGGAGGCAGGCUUCGGUGGCGCGAUAGCGCCAACGUCCUCAACCUCCAAUGCAUCCCACCACAUGAUGAUGCCUGAAGAGCAUUCGUUUUUUG [C124A G127C]
The “polymerase ribozyme fitness (log ratio)” value of the first is lower: -2.44 for the first, 0.796 for the second.

In the case of GACCAAUCUGCCCUCAGAGCUCGAGAACAUCUUCGGAUGCAGAGGAGGCAGGCUUCGGUGGCGCGAUAGCGCCAACGUCCUCAACCUCCAAUGCAUCCCACCACAUGAUGAUGCCUGAAGAAACUUGGUUUUUUG [G122A C123A], the “polymerase ribozyme fitness (log ratio)” value is reported as -0.665.
